Laboratory results from publication PMC8897147 (Acta Pharmaceutica Sinica. B, 2021).

Experiments:
Experiment in all cases: FRET or BRET
[1] = target: T1, gastric inhibitory polypeptide receptor-Rluc8 (UniProt P48546 22-466)
T1 sequence: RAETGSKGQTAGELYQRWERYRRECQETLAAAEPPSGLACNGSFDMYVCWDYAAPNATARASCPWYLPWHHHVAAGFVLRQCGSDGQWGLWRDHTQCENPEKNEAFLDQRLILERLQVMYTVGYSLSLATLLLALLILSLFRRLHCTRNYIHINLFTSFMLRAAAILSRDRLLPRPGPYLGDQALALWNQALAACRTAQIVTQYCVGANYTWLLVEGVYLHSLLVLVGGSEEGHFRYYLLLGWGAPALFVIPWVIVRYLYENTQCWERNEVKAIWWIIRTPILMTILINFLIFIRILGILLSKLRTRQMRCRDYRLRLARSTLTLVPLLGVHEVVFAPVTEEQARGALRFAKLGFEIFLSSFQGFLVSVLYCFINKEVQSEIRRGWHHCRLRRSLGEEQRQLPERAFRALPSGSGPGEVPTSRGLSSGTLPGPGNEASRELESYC

[2] = target: glucagon receptor-Rluc8 (UniProt P47871 26-477)
[3] = target: calcitonin-like receptor-Rluc8 (human, UniProt Q16602 23-461)
[4] = target: T2, growth hormone-releasing hormone receptor-Rluc8 (UniProt Q02643 23-423)
T2 sequence: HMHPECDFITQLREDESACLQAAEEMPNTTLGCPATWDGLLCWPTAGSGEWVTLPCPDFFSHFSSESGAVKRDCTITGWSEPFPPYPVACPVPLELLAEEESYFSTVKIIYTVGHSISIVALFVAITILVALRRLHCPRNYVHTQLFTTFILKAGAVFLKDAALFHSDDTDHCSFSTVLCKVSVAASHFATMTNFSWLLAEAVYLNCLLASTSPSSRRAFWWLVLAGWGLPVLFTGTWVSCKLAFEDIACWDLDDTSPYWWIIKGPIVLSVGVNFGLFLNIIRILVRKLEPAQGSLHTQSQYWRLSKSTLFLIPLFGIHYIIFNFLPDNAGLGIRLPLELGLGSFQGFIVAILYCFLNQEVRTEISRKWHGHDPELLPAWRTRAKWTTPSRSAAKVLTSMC

[5] = target: T3, glucagon-like peptide-2 receptor-Rluc8 (UniProt O95838 1-553)
T3 sequence: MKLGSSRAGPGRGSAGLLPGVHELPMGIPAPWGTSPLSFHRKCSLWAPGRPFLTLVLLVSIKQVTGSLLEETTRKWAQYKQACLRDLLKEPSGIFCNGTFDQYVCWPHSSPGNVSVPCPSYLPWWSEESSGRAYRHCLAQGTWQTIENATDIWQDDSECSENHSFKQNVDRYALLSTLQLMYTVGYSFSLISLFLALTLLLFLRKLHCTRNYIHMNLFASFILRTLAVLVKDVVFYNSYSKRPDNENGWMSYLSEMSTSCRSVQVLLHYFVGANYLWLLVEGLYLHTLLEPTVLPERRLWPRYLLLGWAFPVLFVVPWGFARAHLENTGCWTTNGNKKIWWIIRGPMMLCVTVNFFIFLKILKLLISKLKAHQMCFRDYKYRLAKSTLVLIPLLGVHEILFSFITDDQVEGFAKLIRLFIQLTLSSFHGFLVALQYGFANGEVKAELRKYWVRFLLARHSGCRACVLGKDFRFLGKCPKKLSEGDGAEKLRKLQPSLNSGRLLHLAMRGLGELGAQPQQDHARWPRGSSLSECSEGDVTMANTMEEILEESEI

[6] = target: secretin receptor-Rluc8 (UniProt P47872 23-440)
[7] = target: glucagon-like peptide-1 receptor-Rluc8 (UniProt P43220 24-463)

Sequence of glucagon receptor-Rluc8 (P47871 26-477): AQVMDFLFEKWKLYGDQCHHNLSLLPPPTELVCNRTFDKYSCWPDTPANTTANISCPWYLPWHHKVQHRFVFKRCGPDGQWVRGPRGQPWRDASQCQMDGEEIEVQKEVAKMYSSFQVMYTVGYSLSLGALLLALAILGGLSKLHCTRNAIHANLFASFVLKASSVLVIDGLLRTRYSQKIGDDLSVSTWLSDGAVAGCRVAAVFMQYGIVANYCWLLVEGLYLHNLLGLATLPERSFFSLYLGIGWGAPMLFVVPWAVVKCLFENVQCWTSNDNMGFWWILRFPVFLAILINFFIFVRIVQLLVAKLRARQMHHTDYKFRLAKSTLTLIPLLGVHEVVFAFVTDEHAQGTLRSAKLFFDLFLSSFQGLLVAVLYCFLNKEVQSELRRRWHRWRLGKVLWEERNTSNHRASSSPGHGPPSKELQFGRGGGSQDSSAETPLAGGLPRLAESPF
Sequence of calcitonin-like receptor-Rluc8 (Q16602 23-461): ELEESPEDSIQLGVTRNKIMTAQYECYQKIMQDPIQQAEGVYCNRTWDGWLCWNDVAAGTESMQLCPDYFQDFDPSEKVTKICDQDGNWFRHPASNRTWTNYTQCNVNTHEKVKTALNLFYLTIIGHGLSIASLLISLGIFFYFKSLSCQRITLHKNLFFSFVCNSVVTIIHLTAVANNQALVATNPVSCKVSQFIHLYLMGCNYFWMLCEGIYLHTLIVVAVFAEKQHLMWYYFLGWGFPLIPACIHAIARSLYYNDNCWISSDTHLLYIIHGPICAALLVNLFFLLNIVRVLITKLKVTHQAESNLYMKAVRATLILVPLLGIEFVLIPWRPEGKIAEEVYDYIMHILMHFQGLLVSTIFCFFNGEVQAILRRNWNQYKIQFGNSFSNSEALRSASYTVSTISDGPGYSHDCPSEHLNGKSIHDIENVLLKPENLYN
Sequence of secretin receptor-Rluc8 (P47872 23-440): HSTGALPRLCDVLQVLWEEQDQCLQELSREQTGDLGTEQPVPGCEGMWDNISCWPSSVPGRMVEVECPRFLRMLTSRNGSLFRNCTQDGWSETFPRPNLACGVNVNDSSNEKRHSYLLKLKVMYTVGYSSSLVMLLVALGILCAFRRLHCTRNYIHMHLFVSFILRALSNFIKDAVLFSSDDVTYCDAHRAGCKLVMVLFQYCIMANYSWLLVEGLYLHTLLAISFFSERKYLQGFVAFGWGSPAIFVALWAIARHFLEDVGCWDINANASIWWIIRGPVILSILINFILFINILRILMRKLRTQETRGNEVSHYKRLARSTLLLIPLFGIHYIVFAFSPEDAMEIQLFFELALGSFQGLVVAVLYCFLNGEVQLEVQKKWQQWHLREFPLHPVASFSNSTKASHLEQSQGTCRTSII

Binder	BRET50 (Kd) [1]	BRET50 (Kd) [2]	BRET50 (Kd) [3]	BRET50 (Kd) [4]	BRET50 (Kd) [5]	BRET50 (Kd) [6]	BRET50 (Kd) [7]
RAMP1-Ypet (receptor activity-modulating protein 1) (natural protein) CQEANYGALLRELCLTQFQVDMEAVGETLWCDWGRTIRSYRELADCTWHMAEKLGCFWPNAEVDRFFLAVHGRYFRSCPISGRAVRDPPGSILYPFIVVPITVTLLVTALVVWQSKRTEGIV	4.6 intensity ratio of RAMP:receptor	1.55 intensity ratio of RAMP:receptor	0.077 intensity ratio of RAMP:receptor	–	–	–	–
RAMP2-Ypet (receptor activity-modulating protein 2) (natural protein) QPLPTTGTPGSEGGTVKNYETAVQFCWNHYKDQMDPIEKDWCDWAMISRPYSTLRDCLEHFAELFDLGFPNPLAERIIFETHQIHFANCSLVQPTFSDPPEDVLLAMIIAPICLIPFLITLVVWRSKDSEAQA	2.75 intensity ratio of RAMP:receptor	1.65 intensity ratio of RAMP:receptor	0.114 intensity ratio of RAMP:receptor	0.893 intensity ratio of RAMP:receptor	7.45 intensity ratio of RAMP:receptor	–	–
RAMP3-Ypet (receptor activity-modulating protein 3) (natural protein) RAGGCNETGMLERLPLCGKAFADMMGKVDVWKWCNLSEFIVYYESFTNCTEMEANVVGCYWPNPLAQGFITGIHRQFFSNCTVDRVHLEDPPDEVLIPLIVIPVVLTVAMAGLVVWRSKRTDTLL	0.352 intensity ratio of RAMP:receptor	2.34 intensity ratio of RAMP:receptor	0.087 intensity ratio of RAMP:receptor	2.09 intensity ratio of RAMP:receptor	1.66 intensity ratio of RAMP:receptor	1.63 intensity ratio of RAMP:receptor	1 intensity ratio of RAMP:receptor
